In article PMC3205447:

How the values were obtained:
TRAF2 = TRAF2 (UniProt P39429); assay: anti-TRAF2 IP, TAX1BP1 immunoblot; settings: reference: wild type; sites S593,S624
TRAF6 = TRAF6 (UniProt P70196); assay: anti-TRAF6 IP, TAX1BP1 immunoblot; settings: reference: wild type; sites S593,S624
UniProt P70196, sequence (P70196 whole entry, looked up): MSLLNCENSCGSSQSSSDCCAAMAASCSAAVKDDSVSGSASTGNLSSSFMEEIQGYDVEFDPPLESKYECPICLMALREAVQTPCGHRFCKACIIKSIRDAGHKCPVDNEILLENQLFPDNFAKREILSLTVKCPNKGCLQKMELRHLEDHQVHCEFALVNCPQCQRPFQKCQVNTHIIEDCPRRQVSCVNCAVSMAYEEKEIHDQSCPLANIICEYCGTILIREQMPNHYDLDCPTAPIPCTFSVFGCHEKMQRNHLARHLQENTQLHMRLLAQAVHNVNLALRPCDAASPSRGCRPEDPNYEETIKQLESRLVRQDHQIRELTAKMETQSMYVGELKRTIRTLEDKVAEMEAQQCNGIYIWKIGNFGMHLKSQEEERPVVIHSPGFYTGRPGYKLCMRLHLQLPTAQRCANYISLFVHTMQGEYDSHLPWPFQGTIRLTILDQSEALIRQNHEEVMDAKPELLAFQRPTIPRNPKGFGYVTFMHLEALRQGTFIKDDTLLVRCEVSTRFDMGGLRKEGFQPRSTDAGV

UniProt P39429, sequence (P39429 whole entry, looked up): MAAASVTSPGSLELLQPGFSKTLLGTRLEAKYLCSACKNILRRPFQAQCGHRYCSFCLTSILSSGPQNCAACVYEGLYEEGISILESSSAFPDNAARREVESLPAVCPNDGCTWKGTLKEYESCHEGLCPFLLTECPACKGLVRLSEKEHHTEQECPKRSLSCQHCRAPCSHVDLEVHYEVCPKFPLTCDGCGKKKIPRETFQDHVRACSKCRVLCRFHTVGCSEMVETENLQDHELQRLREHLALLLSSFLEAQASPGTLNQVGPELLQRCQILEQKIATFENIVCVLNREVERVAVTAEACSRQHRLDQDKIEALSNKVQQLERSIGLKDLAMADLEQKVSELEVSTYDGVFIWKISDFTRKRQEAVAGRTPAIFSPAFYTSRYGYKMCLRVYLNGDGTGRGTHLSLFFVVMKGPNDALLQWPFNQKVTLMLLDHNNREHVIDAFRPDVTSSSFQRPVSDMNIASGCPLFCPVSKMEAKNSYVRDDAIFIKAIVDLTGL

## TAX1BP1 (Flag-tagged, amino acids 1–747) 1-747 (from UniProt Q86VP1-2) S593A, S624A
TRAF2
  binding against the reference: lost
TRAF6
  binding against the reference: lost
